# Measurements as given in paper PMC3025356, “Mechanism of the Ca^2+-Dependent Interaction between S100A4 and Tail Fragments of Nonmuscle Myosin Heavy Chain IIA” (Journal of Molecular Biology, 2011).
# B1: M32 peptide (A1907-G1938 of human nonmuscle myosin heavy chain IIA) (peptide, UniProt P35579-1 1907-1938, looked up)
# peptide: Ac-ADAMNREVSSLKNKLRRGDLPFVVPRRMARKG-NH2
# notes: nonmuscle myosin heavy chain IIA (NM-MHC IIA), human, residues A1907-G1938; source: synthetic peptide, bought: Peptide 2.0, Inc
# B2: S100A4 (wild type, full-length) (natural protein)
# chain: not shown
# notes: S100A4, wild type, called full-length in the NMR experiment with M111; The tag and the vector are not described; also called Mts1; metastasin; source: E. coli BL21(DE3), purified (Ni-NTA, Superdex 75)
# B3: M32 myosin peptide (NM-MHC IIA A1907-G1938) (peptide, UniProt P35579-1 1907-1938, looked up)
# peptide: Ac-ADAMNREVSSLKNKLRRGDLPFVVPRRMARKG-NH2
# notes: as for B1
# B4: M200, C-terminal fragment of human NM-MHC IIA (residues Q1761-E1960) (domain or fragment)
# chain: QINTDLNLERSHAQKNENARQQLERQNKELKVKLQEMEGTVKSKYKASITALEAKIAQLEEQLDNETKERQAACKQVRRTEKKLKDVLLQVDDERRNAEQYKDQADKASTRLKQLKRQLEEAEEEAQRANASRRKLQRELEDATETADAMNREISSLKNKLRRGDLPFVVPRRMARKGAGDGSDEEVDGKADGAEAKPAE
# modifications: Parallel coiled-coil dimer. N-terminal … tag omitted. The paper prints V1913I, but by its own numbering (D1908-R1923, G1938, G1940, D1941) 1913 is E and the only adjacent Val is V1914, so …
# What was measured:
# Settings in all cases: both partners purified
# S100A4 (wild type) = target: T1, S100A4 (wild type) (UniProt P26447 1-101); experiment: stopped-flow Quin-2 fluorescence (Ca2+ dissociation rate constant against [M32]); 10 uM S100A4 with Ca2+ premixed with M32 (0-50 uM), mixed with 100 uM Quin-2; kobs from single exponentials fitted against [M32] to a quadratic binding equation; apparent; legend says conditions as for Fig. 2c (taken as Fig. 5c: 100 mM NaCl, 10 mM Hepes, 100 uM Ca2+, pH 7.5, 20 C)
# T1 construct: S100A4, wild type; predominantly a dimer under the conditions of the kinetic analysis; Concentrations are stated per monomer chain; only the Ni-NTA column is told; also called Mts1; metastasin; source: E. coli BL21(DE3), purified (Ni-NTA, Superdex 75 gel filtration)
# T1 sequence (P26447 whole entry, one chain of several): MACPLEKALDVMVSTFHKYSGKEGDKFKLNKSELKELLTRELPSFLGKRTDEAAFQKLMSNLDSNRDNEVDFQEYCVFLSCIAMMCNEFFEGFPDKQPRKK
# [1] = target: B4; experiment: turbidity; apparent absorbance at 300 nm, manual mixing; 5 μM M200 filaments in 100 mM NaCl, 10 mM Hepes, 0.1 mM Ca2+, pH 7.5, 20 °C; S100A4 added, then EGTA, then Ca2+
# [2] = target: B2; experiment: not stated; K0 of Scheme 1: binding in the absence of Ca2+; the experiment behind the limit is not told
# [3] = target: B2; experiment: fluorescence polarisation; competition: displacement of F-M16^N (5 μM) from S100A4 (5 μM) by increasing M32 or M16^N, with Ca2+; fit to a competitive single-site model with Kd of F-M16^N fixed at 2 μM
# [4] = target: B2; experiment: as above; remark: listed apart in the source
# [5] = target: B2; experiment: stopped-flow Quin-2 fluorescence (Ca2+ dissociation); S100A4 + Ca2+ premixed with peptide or fragment, mixed with 100 μM Quin-2; 100 mM NaCl, 10 mM Hepes, 100 μM Ca2+, pH 7.5, 20 °C (M16^N also in 20 mM NaCl, 20 mM Tris, 1 mM DTT); apparent
# [6] = target: B2; experiment: turbidity; as a12 in the presence of 250 μM M32 or 250 μM M16^N (competition for S100A4)
# [7] = target: B2; experiment: turbidity; Ca2+ dependence of the turbidity assay of M200 with S100A4; details in Supplementary Data
# [8] = target: B2; experiment: stopped-flow Quin-2 fluorescence (Ca2+ dissociation); S100A4 + Ca2+ premixed with peptide or fragment, mixed with 100 μM Quin-2; 100 mM NaCl, 10 mM Hepes, 100 μM Ca2+, pH 7.5, 20 °C (M16^N also in 20 mM NaCl, 20 mM Tris, 1 mM DTT); apparent; remark: listed apart in the source
binder,measurement,setting,value
B1,Kd,S100A4 (wild type),440 nM
B2,stoichiometry N,[1],2 S100A4 monomer per M200 polypeptide chain
B3,Kd,[2],> 100 µM
same,KD (model in which one M32 spans two S100A4 monomers),[3],1.5 µM
same,Kd,[4],3000 nM
same,Kd,[5],400 nM
B4,Kd,[6],~1 nM
same,Kd,[2],> 100 µM
same,Kd,[7],≤ 3 nM
same,koff,[8],< 0.3 s⁻¹
